# B1: CR6261 (antibody, V domains shown)
# VH: EVQLVESGAEVKKPGSSVKVSCKASGGPFRSYAISWVRQAPGQGPEWMGGIIPIFGTTKYAPKFQGRVTITADDFAGTVYMELSSLRSEDTAMYYCAKHMGYQVRETMDVWGKGTTVTVSS
# VL: QSVLTQPPSVSAAPGQKVTISCSGSSSNIGNDYVSWYQQLPGTAPKLLIYDNNKRPSGIPDRFSGSKSGTSATLGITGLQTGDEANYYCATWDRRPTAYVVFGGGTKLTVLG
# Columns and labels:
# [1] = molecular target: T1, H1-mini2-cluster1+5+6-GCN4 without leader sequence and with FLAG-thrombin-foldon-HIS; assay: ELISA/HTRF, HEK293F; average; details: remark: other sources report otherwise
# [2] = molecular target: T1, H1-mini2-cluster1+5+6-GCN4 without …; assay: ELISA/HTRF, P. pastoris; average; details: remark: other sources report otherwise
binder,measurement,setting,value
B1,fold increase of ratio over parental SEQ ID NO: 6,[1],1 fold
same,ratio binding signal/HTRF signal,[1],17.4
same,fold increase of ratio over parental SEQ ID NO: 6,[2],1 fold
same,ratio binding signal/HTRF signal,[2],5.94

# — patent US20160136262A1
